According to the supplement of paper PMC7877785:
± gives the uncertainty stated by the source.

Assay: self-splicing fitness, log relative to wild type (ln ratio); higher = more splicing; Tetrahymena group I intron in knt gene, E. coli kanamycin selection, DiMSum; sequences stand for … in CUCUCU…GGAGGGAAAAGUUAUCAGGCAUGCACCUGGUAGCUAGUCUUUAAACCAAUAGAUUGCAUCGGUUUAAAAGGCAAGACCGUCAAAUUGCGGGAAAGGGGUCAACAGCCGUUCAGUACCAAGUCUCAGGGGAAACUUUGAGAUGGCCUUGCAAAGGGUAUGGUAAUAAGCUGACGGACAUGGUCCUAACCACGCAGCCAAGUCCUAAGUCAACAGAUCUUCUGUUGAUAUGGAUGCAGUUCACAGACUAAAUGUCGGUCGGGGAAGAUGUAUUCUUCUCAUAAGAUAUAGUCGGACCUCUCCUUAAUGGGAGCUAGCGGAUGAAGUGAUGCAACACUGGAGCCGCUGGGAACUAAUUUGUAUGCGAAAGUAUAUUGAUUAGUUUUGGAGUACUCGUGGUCG
Summary of the method: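 Six replicate transformations of E. coli BL21(DE3) with a pET-22b(+) library were grown overnight at 37°C or 30°C. The library randomised all eight P1ex-region intron nucleotides, the intron lying in the knt kanamycin-resistance gene, and plates were LB agar with or without 25 μg/mL kanamycin plus 100 μg/mL carbenicillin, 50 μM IPTG and 0.2% rhamnose. Pooled colonies were amplicon-sequenced on an Illumina HiSeq 2500, and fitness is the DiMSum error-weighted combination of wild-type-normalised replicate fold changes, kanamycin versus none.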

CAUGAGCAAUAUUACGAGAG
self-splicing fitness (ln) (30 °C): -3.22 ± 0.16
self-splicing fitness (ln) (37 °C): -3.27 ± 0.23

CAUGAGCAAUAUUACGAUAA
self-splicing fitness (ln) (30 °C): -3.72 ± 0.35
self-splicing fitness (ln) (37 °C): -1.97 ± 0.3

CAUGAGCAAUAUUACGAUUU
self-splicing fitness (ln) (30 °C): -2.51 ± 0.15
self-splicing fitness (ln) (37 °C): -2.15 ± 0.2

CAUGAGCAAUAUUACGCCGG
self-splicing fitness (ln) (30 °C): -3.79 ± 0.22
self-splicing fitness (ln) (37 °C): -2.14 ± 0.26

CAUGAGCAAUAUUACGCGCU
self-splicing fitness (ln) (30 °C): -3.58 ± 0.42
self-splicing fitness (ln) (37 °C): -2.21 ± 0.4

CAUGAGCAAUAUUACGCUCA
self-splicing fitness (ln) (30 °C): -3.35 ± 0.17
self-splicing fitness (ln) (37 °C): -2.18 ± 0.18

CAUGAGCAAUAUUACGCUCU
self-splicing fitness (ln) (30 °C): -3.71 ± 0.49
self-splicing fitness (ln) (37 °C): -2.82 ± 0.31

CAUGAGCAAUAUUACGGAGU
self-splicing fitness (ln) (30 °C): -4.1 ± 0.4
self-splicing fitness (ln) (37 °C): -3.1 ± 0.31

CAUGAGCAAUAUUACGGCUA
self-splicing fitness (ln) (30 °C): -2.75 ± 0.45
self-splicing fitness (ln) (37 °C): -1.87 ± 0.2

CAUGAGCAAUAUUACGGGUC
self-splicing fitness (ln) (30 °C): -2.75 ± 0.25
self-splicing fitness (ln) (37 °C): -2.75 ± 0.27

CAUGAGCAAUAUUACGGUAU
self-splicing fitness (ln) (30 °C): -4 ± 0.39
self-splicing fitness (ln) (37 °C): -3.54 ± 0.33

CAUGAGCAAUAUUACGGUGA
self-splicing fitness (ln) (30 °C): -1.91 ± 0.35
self-splicing fitness (ln) (37 °C): -2.8 ± 0.44

CAUGAGCAAUAUUACGGUUU
self-splicing fitness (ln) (30 °C): -3.52 ± 0.2
self-splicing fitness (ln) (37 °C): -3.01 ± 0.24

CAUGAGCAAUAUUACGUAAA
self-splicing fitness (ln) (30 °C): -3.16 ± 0.15
self-splicing fitness (ln) (37 °C): -3.43 ± 0.32

CAUGAGCAAUAUUACGUAGU
self-splicing fitness (ln) (30 °C): -5.58 ± 0.41
self-splicing fitness (ln) (37 °C): -3.3 ± 0.19

CAUGAGCAAUAUUACGUAUG
self-splicing fitness (ln) (30 °C): -2.65 ± 0.21
self-splicing fitness (ln) (37 °C): -2.65 ± 0.22

CAUGAGCAAUAUUACGUCAC
self-splicing fitness (ln) (30 °C): -3.36 ± 0.36

CAUGAGCAAUAUUACGUCCG
self-splicing fitness (ln) (30 °C): -0.682 ± 0.079
self-splicing fitness (ln) (37 °C): -0.331 ± 0.1

CAUGAGCAAUAUUACGUCGU
self-splicing fitness (ln) (30 °C): -3.75 ± 0.18
self-splicing fitness (ln) (37 °C): -3.34 ± 0.19

CAUGAGCAAUAUUACGUGGA
self-splicing fitness (ln) (30 °C): -3.96 ± 0.47
self-splicing fitness (ln) (37 °C): -3 ± 0.38

CAUGAGCAAUAUUACGUGGU
self-splicing fitness (ln) (30 °C): -3.53 ± 0.18
self-splicing fitness (ln) (37 °C): -2.49 ± 0.16

CAUGAGCAAUAUUACGUUGC
self-splicing fitness (ln) (30 °C): -2.57 ± 0.091
self-splicing fitness (ln) (37 °C): -3.34 ± 0.2

CAUUAGCAAUAUUACGAAAU
self-splicing fitness (ln) (30 °C): -3.12 ± 0.29
self-splicing fitness (ln) (37 °C): -2.37 ± 0.28

CAUUAGCAAUAUUACGAAGA
self-splicing fitness (ln) (30 °C): -3.8 ± 0.43
self-splicing fitness (ln) (37 °C): -0.417 ± 0.23

CAUUAGCAAUAUUACGAUAG
self-splicing fitness (ln) (30 °C): -0.405 ± 0.094
self-splicing fitness (ln) (37 °C): -0.688 ± 0.11

CAUUAGCAAUAUUACGCGAC
self-splicing fitness (ln) (30 °C): -3.58 ± 0.48

CAUUAGCAAUAUUACGCUGC
self-splicing fitness (ln) (30 °C): -3.92 ± 0.28
self-splicing fitness (ln) (37 °C): -2.43 ± 0.24

CAUUAGCAAUAUUACGGAUC
self-splicing fitness (ln) (30 °C): -1.46 ± 0.12
self-splicing fitness (ln) (37 °C): -1.6 ± 0.16

CAUUAGCAAUAUUACGGCCU
self-splicing fitness (ln) (30 °C): -3.52 ± 0.18
self-splicing fitness (ln) (37 °C): -2.21 ± 0.21

CAUUAGCAAUAUUACGGGAA
self-splicing fitness (ln) (37 °C): -2.59 ± 0.41

CAUUAGCAAUAUUACGGUAA
self-splicing fitness (ln) (30 °C): -2.31 ± 0.14
self-splicing fitness (ln) (37 °C): -2.26 ± 0.14

CAUUAGCAAUAUUACGGUUC
self-splicing fitness (ln) (30 °C): -3.48 ± 0.21
self-splicing fitness (ln) (37 °C): -2.55 ± 0.23

CAUUAGCAAUAUUACGUAAG
self-splicing fitness (ln) (30 °C): -0.138 ± 0.057
self-splicing fitness (ln) (37 °C): 0.358 ± 0.074

CAUUAGCAAUAUUACGUCAC
self-splicing fitness (ln) (37 °C): -1.63 ± 0.44

CAUUAGCAAUAUUACGUCCU
self-splicing fitness (ln) (30 °C): -3.14 ± 0.18
self-splicing fitness (ln) (37 °C): -1.38 ± 0.15

CAUUAGCAAUAUUACGUGUC
self-splicing fitness (ln) (37 °C): -2.18 ± 0.24

CAUUAGCAAUAUUACGUUAA
self-splicing fitness (ln) (30 °C): -2.87 ± 0.22
self-splicing fitness (ln) (37 °C): -1.91 ± 0.2

CAUUAGCAAUAUUACGUUUU
self-splicing fitness (ln) (30 °C): -4 ± 0.24
self-splicing fitness (ln) (37 °C): -3.21 ± 0.24

CCAAAGCAAUAUUACGAAAA
self-splicing fitness (ln) (30 °C): -1.93 ± 0.17
self-splicing fitness (ln) (37 °C): -2.85 ± 0.32

CCAAAGCAAUAUUACGAAAU
self-splicing fitness (ln) (30 °C): -3.31 ± 0.19
self-splicing fitness (ln) (37 °C): -3.2 ± 0.28

CCAAAGCAAUAUUACGACCA
self-splicing fitness (ln) (30 °C): -3.08 ± 0.34
self-splicing fitness (ln) (37 °C): -1.78 ± 0.45

CCAAAGCAAUAUUACGACGU
self-splicing fitness (ln) (30 °C): -3.76 ± 0.22
self-splicing fitness (ln) (37 °C): -2.8 ± 0.21

CCAAAGCAAUAUUACGAGUG
self-splicing fitness (ln) (30 °C): -0.346 ± 0.039
self-splicing fitness (ln) (37 °C): -0.144 ± 0.058

CCAAAGCAAUAUUACGCCAC
self-splicing fitness (ln) (30 °C): -3.59 ± 0.3
self-splicing fitness (ln) (37 °C): -2.01 ± 0.47

CCAAAGCAAUAUUACGCCCU
self-splicing fitness (ln) (30 °C): -3.49 ± 0.42
self-splicing fitness (ln) (37 °C): -3.01 ± 0.27

CCAAAGCAAUAUUACGCCUA
self-splicing fitness (ln) (30 °C): -4.18 ± 0.33
self-splicing fitness (ln) (37 °C): -3.12 ± 0.35

CCAAAGCAAUAUUACGCGUU
self-splicing fitness (ln) (30 °C): -3.79 ± 0.12
self-splicing fitness (ln) (37 °C): -2.89 ± 0.16

CCAAAGCAAUAUUACGCUCG
self-splicing fitness (ln) (30 °C): -1.97 ± 0.11
self-splicing fitness (ln) (37 °C): -0.271 ± 0.12

CCAAAGCAAUAUUACGCUGG
self-splicing fitness (ln) (30 °C): -4.28 ± 0.23
self-splicing fitness (ln) (37 °C): -2.46 ± 0.17

CCAAAGCAAUAUUACGGAGC
self-splicing fitness (ln) (30 °C): -3.3 ± 0.15
self-splicing fitness (ln) (37 °C): -2.69 ± 0.19

CCAAAGCAAUAUUACGGAUA
self-splicing fitness (ln) (30 °C): -2.87 ± 0.22
self-splicing fitness (ln) (37 °C): -2.17 ± 0.31

CCAAAGCAAUAUUACGGCCG
self-splicing fitness (ln) (30 °C): -0.467 ± 0.1
self-splicing fitness (ln) (37 °C): -0.508 ± 0.12

CCAAAGCAAUAUUACGGGAA
self-splicing fitness (ln) (30 °C): -3.01 ± 0.18
self-splicing fitness (ln) (37 °C): -3.66 ± 0.3

CCAAAGCAAUAUUACGGGGU
self-splicing fitness (ln) (30 °C): -3.24 ± 0.15
self-splicing fitness (ln) (37 °C): -3.43 ± 0.23

CCAAAGCAAUAUUACGGGUC
self-splicing fitness (ln) (30 °C): -4.39 ± 0.23
self-splicing fitness (ln) (37 °C): -3.1 ± 0.22

CCAAAGCAAUAUUACGUACG
self-splicing fitness (ln) (30 °C): -0.00591 ± 0.081
self-splicing fitness (ln) (37 °C): 0.0861 ± 0.084

CCAAAGCAAUAUUACGUAGC
self-splicing fitness (ln) (30 °C): -3.81 ± 0.16
self-splicing fitness (ln) (37 °C): -2.48 ± 0.16

CCAAAGCAAUAUUACGUCCA
self-splicing fitness (ln) (30 °C): -2.8 ± 0.26
self-splicing fitness (ln) (37 °C): -2.19 ± 0.3

CCAAAGCAAUAUUACGUCCU
self-splicing fitness (ln) (30 °C): -4.59 ± 0.31
self-splicing fitness (ln) (37 °C): -2.33 ± 0.21

CCAAAGCAAUAUUACGUGAG
self-splicing fitness (ln) (30 °C): -0.357 ± 0.049
self-splicing fitness (ln) (37 °C): 0.0847 ± 0.073

CCAAAGCAAUAUUACGUGCU
self-splicing fitness (ln) (30 °C): -4.12 ± 0.18
self-splicing fitness (ln) (37 °C): -2.88 ± 0.18

CCAAAGCAAUAUUACGUUCU
self-splicing fitness (ln) (30 °C): -3.78 ± 0.26
self-splicing fitness (ln) (37 °C): -2.3 ± 0.23

CCACAGCAAUAUUACGAAAC
self-splicing fitness (ln) (30 °C): -2.27 ± 0.29
self-splicing fitness (ln) (37 °C): -1.8 ± 0.34

CCACAGCAAUAUUACGAAAG
self-splicing fitness (ln) (30 °C): -1.55 ± 0.066
self-splicing fitness (ln) (37 °C): -0.182 ± 0.082

CCACAGCAAUAUUACGACGG
self-splicing fitness (ln) (30 °C): -3.63 ± 0.12
self-splicing fitness (ln) (37 °C): -1.63 ± 0.1

CCACAGCAAUAUUACGAGAU
self-splicing fitness (ln) (30 °C): -3.37 ± 0.14
self-splicing fitness (ln) (37 °C): -1.65 ± 0.14

CCACAGCAAUAUUACGAGCA
self-splicing fitness (ln) (30 °C): -3.6 ± 0.18
self-splicing fitness (ln) (37 °C): -2.89 ± 0.19

CCACAGCAAUAUUACGAUAG
self-splicing fitness (ln) (30 °C): -1.17 ± 0.065
self-splicing fitness (ln) (37 °C): 0.206 ± 0.084

CCACAGCAAUAUUACGAUGC
self-splicing fitness (ln) (30 °C): -3.7 ± 0.17
self-splicing fitness (ln) (37 °C): -2.66 ± 0.21

CCACAGCAAUAUUACGAUGG
self-splicing fitness (ln) (30 °C): -4.02 ± 0.14
self-splicing fitness (ln) (37 °C): -2.5 ± 0.13

CCACAGCAAUAUUACGCAGC
self-splicing fitness (ln) (30 °C): -3.88 ± 0.22
self-splicing fitness (ln) (37 °C): -2.83 ± 0.25

CCACAGCAAUAUUACGCCAA
self-splicing fitness (ln) (30 °C): -2.96 ± 0.2
self-splicing fitness (ln) (37 °C): -2.1 ± 0.23

CCACAGCAAUAUUACGCCAC
self-splicing fitness (ln) (30 °C): -3.52 ± 0.27
self-splicing fitness (ln) (37 °C): -2.54 ± 0.27

CCACAGCAAUAUUACGCCGC
self-splicing fitness (ln) (30 °C): -3.12 ± 0.21
self-splicing fitness (ln) (37 °C): -3.49 ± 0.27

CCACAGCAAUAUUACGCGGC
self-splicing fitness (ln) (30 °C): -3.19 ± 0.24
self-splicing fitness (ln) (37 °C): -3.09 ± 0.35

CCACAGCAAUAUUACGGACA
self-splicing fitness (ln) (30 °C): -3.12 ± 0.21
self-splicing fitness (ln) (37 °C): -2.51 ± 0.18

CCACAGCAAUAUUACGGAGG
self-splicing fitness (ln) (30 °C): -3.92 ± 0.22
self-splicing fitness (ln) (37 °C): -1.16 ± 0.12
